The values that follow come from IntAct's records for PubMed 19001025.

Sequences and labels used below:
B1: Nucleolar protein 3 (Rattus norvegicus (Rat)), Q62881 (parent)
chain: MGNMQERPSETIDRERKRLVETLQADSGLLLDALVARGVLTGPEYEALDALPDAERRVRRLLLLVQSKGEAACQELLRCAQQTVSMPDPAWDWQHVGPGYRDRSYDPPCPGHWTPEAPSSGTTCPGLPRASEEEEIGGPEDSEAVQPRTPEEPELEAEATKGDEPDLEQEMEPEPEPEVEPEPEPEPEPEPEPEPEPEPEPEPEREPDFQEGDESEGCENT
partner: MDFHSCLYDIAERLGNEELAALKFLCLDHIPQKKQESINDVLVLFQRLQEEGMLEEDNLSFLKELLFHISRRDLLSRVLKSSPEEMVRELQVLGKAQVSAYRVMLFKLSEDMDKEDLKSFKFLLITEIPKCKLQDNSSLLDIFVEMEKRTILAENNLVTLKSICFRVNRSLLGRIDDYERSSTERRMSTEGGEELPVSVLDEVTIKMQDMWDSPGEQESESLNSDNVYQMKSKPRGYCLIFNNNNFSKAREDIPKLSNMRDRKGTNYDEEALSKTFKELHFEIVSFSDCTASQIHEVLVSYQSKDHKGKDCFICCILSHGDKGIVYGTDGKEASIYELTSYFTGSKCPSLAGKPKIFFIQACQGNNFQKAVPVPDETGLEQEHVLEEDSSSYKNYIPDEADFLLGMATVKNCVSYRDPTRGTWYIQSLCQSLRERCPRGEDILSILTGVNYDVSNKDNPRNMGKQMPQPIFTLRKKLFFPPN

This assay covers variants of B1. Particulars: with casp8_rat Casp8, Q9JHX4.
As to MGNMQERPSETIDRERKRLVETLQADSGLLLDALVARGVLTGPEYEALDALPDAERRVRRLLLLVQSKGEAACQELLRCAQQTVSMPDPAWDWQHVGPGYRDRSYDPPCPGHWTPEAPSSGTTCPGLPRASEEEEIGGPEDSEAVQPRDPEEPELEAEATKGDEPDLEQEMEPEPEPEVEPEPEPEPEPEPEPEPEPEPEPEPEREPDFQEGDESEGCENT [T149D], the “effect of a mutation on the interaction” value is reported as “disrupting interaction”.
